Measurements reported in patent US20110257086A1 (Johns Hopkins, published 2011).

Experiments:
Assay in all cases: cell-based or functional assay
[1] = molecular target: serotonin N-acetyltransferase
p300 HAT = molecular target: p300 HAT
PCAF HAT = molecular target: PCAF HAT
[2] = molecular target: T1, ghrelin O-acyltransferase (GOAT) endogenous in human cell lines (HEL, Kato III, AGS) (human, UniProt Q96T53 1-435)
T1 sequence: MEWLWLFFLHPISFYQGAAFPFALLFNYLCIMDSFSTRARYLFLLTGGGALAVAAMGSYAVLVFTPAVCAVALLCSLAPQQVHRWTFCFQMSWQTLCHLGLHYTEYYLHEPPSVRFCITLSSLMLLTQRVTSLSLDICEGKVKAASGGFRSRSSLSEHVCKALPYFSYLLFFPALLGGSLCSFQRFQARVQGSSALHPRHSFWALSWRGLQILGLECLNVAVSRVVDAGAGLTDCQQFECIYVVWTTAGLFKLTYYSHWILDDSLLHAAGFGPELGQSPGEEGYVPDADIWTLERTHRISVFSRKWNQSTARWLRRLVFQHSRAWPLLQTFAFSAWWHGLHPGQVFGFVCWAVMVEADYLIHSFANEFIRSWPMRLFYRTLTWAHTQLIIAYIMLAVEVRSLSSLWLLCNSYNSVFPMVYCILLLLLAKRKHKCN

B1: GO-CoA-Tat (Compound 1 of FIG. 1C), bisubstrate analog inhibitor of ghrelin O-acyltransferase (peptide)
peptide: GSSFLSPEHQYGRKKRRQRRR
modifications: Ser3 of ghrelin replaced with 1,2-diaminopropionic acid (Dap), whose side-chain amine carries an octanoyl group conjugated at its alpha carbon to coenzyme A; amino-hexanoyl (Ahx) linker between ghrelin residue 10 and the Tat peptide
For B1, which “inhibition of acetyltransferase activity at 10 µM GO-CoA-Tat (alpha-KGDH coupled spectrophotometric assay)” value (“inhibition of acetyltransferase activity” below) [1] is on record?
Its value is less than 15 % inhibition.

What about the “inhibition of acetyltransferase activity” value (p300 HAT) of the same binder?
The value was less than 15 % inhibition.

And the “inhibition of acetyltransferase activity” value (PCAF HAT)?
The value was less than 15 % inhibition.

What about the “IC50 of reduction of acyl-ghrelin levels in cell lysates (HEL, Kato III, AGS cells)” value [2] of the same binder?
The value was 1000 to 2000 nM.
